Molecular target: T1, Spc98p (Saccharomyces cerevisiae, UniProt P53540 1-846)
T1 sequence: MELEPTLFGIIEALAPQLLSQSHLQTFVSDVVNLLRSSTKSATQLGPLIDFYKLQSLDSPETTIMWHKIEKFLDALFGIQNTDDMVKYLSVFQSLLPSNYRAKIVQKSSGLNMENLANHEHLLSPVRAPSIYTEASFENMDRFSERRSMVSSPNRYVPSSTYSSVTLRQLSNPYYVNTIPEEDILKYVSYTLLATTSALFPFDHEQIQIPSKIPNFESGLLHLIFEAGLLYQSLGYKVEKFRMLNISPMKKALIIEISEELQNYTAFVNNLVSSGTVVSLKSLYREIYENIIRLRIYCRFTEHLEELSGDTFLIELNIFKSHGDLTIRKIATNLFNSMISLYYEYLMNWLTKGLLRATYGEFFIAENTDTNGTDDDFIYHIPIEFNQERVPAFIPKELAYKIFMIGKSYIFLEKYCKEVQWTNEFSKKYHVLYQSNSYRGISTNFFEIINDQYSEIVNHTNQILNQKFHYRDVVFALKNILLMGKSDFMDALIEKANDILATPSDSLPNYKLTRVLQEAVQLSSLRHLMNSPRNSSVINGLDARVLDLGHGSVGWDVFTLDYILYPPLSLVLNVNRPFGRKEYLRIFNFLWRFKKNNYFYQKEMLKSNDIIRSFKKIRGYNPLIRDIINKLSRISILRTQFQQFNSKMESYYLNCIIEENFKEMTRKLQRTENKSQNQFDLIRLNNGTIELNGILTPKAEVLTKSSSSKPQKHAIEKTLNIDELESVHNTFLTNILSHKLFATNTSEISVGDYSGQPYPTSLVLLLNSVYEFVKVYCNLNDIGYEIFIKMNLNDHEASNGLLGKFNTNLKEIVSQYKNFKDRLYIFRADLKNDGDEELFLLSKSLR
Assay: cryo-EM structure

B1: Spc97p (natural protein)
chain: MEIKEVDDRAELLRYTNNIPLLGKLVNHQPLWSTNPKLKSFSLEKISAPDQRRVQEALVVKDLLNVLIGLEGTYIRYFNDYEPSDPETPIEFKIAKKMDPSFKTFSRRIVRYGKQYMILTRAYEKWSDTSFGMVLQRFAYEIRRFLEDVYLKTLVERLERDFNKVPNFSIRELEQIINETEVNKQMELLYNIYEEIFREIEERRTNQSSQEDFNNFMDSMKNESSLHLRLMVAFDTTVYPVPKGGAILKIFQQKILENLGDRSSVMFLKKLLNNISQDYCTMLYEWLTQGILNDPYQEFMTYDDLEGKTDNIFDTRDRAWDTQYFIRKDVLLRDCDSEEDKNLLFKMLRTGILLKVVRASLQIPTIPSNSSDITIQEINDFADLMEGSNLELYVDKCYSRANEIFLKLFFQGYDLINVLKHLQQIFLGYQSGHNVLKFLTKNMGELTKHYRNDNNANYDKLLQNFELERQSENPNNLMRQLLMIQFDTETLPQVLSHYLQIYPEVPENNSANDDSDPLMHANNFKNMNAILFDELSKERTGAYHGSNLELYTPKSAIYHLKFDINIPYPLNIIISRTCMIKYQIILRYQLVLQYHSRLLDETWMDLNKTPSWKYRGYSHTVKRRIVRATRVLHAKMNHFIKTIMEYFNQNVIDKEVYSLEKCYRNPTLAVAIQNELEGGLTNIMTNRCLSDLIPLQLQIFDIVYKFCKFIKSMRAKLCQLDPVLYEKHKSGMMKTLNEGYRTNNGGQEDVGYQEDAALELIQKLIEYISNASSIFRKCLINFTQELSTEKFDFYDSSSVDAAGIERVLYSIVPPRSASASSQR
  binding result: binds
